From PMC6249037

Assays:
[1] = target: N15 TCRαβ heterodimer, WT TCRα (mouse) (UniProt P01849)
[2] = target: N15 TCRαβ heterodimer, TCRα R251L (mouse)

Chain of UniProt P01849 (P01849 whole entry, looked up, one chain of several): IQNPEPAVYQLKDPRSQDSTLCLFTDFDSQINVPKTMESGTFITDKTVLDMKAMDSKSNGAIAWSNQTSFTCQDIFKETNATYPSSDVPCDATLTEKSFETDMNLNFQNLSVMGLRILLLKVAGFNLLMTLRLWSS

How did the force maximum for catch-bond formation (CD3δ-SxxS cell line) [1] turn out when “VSV8K^b (vesicular stomatitis virus nucleoprotein octapeptide VSV8 bound to [change]^b) (peptide-MHC)” was run?
Its force maximum for catch-bond formation (CD3δ-SxxS cell line) is 15 pN.

And the maximal bond lifetime (catch bond; CD3δ-SxxS cell line) [1]?
The maximal bond lifetime (catch bond; CD3δ-SxxS cell line) was 8 s.

And the catch bond force maximum [2]?
The catch bond force maximum was 10 pN.
